Test results from the domain aggregation screens of Martell et al. (2025).

test: soluble fraction after stress (log2 fold change); higher = more stays soluble; pooled small domains, quantitative proteomics; conditions: stress: 75 degC
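Note: 20 min heating vs room temperature control held 20 min.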

Row | Sequence | soluble fraction (log2)
1 | HMLSSNEIKEIFALFDKSNRGQVATSELGTLVRALNLNPTETEITDMQSKVDPKGQGSFTLDVLEKVVQD | 0.394
2 | HMLSVNREQVEQSLKQEWGFDYDKNLRAAQRAIDVYGDDDLKLLLNGPTGNDPAIVKLFARLGGEVTEE | 0.132
3 | HMLSYIELTVDNTSKASYIMTDKMKINNFKIIGNNTIRVYENKVSPQDISRTLSMNNVSIEALGRKS | -1.29
4 | HMLSYNINEESKSSIMNVNVLKNNFASIDVEKLQNIIFTTFKKYNYYLNDFSSMNLLLHLLIIVDREL | 0.418
5 | HMLTEKEEEVMQILWDNGPLFVREILEFYPDPKPHYNTVSTVIRVLEEKNFASHKAYGNTYQYFP | 0.315
6 | HMLTLEDMTRINSIISPRIKKGQSLYHIAKNNGDELNISESTLRRLVMTGEMDAGIIDLPQAVK | -0.00636
7 | HMLTLTNREKQVLVYIAKGHQVAQIAYELKLSGHTINGYIKTIYQKLHISSRAEAALLAQQYGL | -3.31
8 | HMLTRQNFHGIKLPTIHEYIDLLNSRVNANIDKTNNWQSSVSHLRTYLNSHNINAVSKESINNYIDERLN | -1.4
9 | HMLTRRQSEVLDFIRQFAESESMPPTLHEIAKGMGFSSDNAARDHVRALARKGAIDLVGGTSRGIRLR | -1.22
10 | HMLTRSASREELDQLLKRLRQNLKQKNFFWPPDKEKSLVLYLENLFSKFPLNSSDIRFLHGIIRTLSEK | -0.188
11 | HMLVGKSVIMKTNESSSGMIAGKVNYWENIDGKIYLGINGKLYDIADVDTVLDNDYYDKLVN | -0.516
12 | HMLVKKYTEEETGRQAELSKQLAELSKAYYNTGNSMVDDAVFDKLRDELSSLEKESGFAYDISPNVS | -0.69
13 | HMLVNNSTIETVIDFANVKFGMELTKDQVSEQLRNLSFSQTLKLINSMKADDNDAFSEIIDL | -0.593
14 | HMLVSFGDHLKRYIYERAGIEEPFGEVPQEIYRDIAVDSFRETYTPKSMNPTSTKLPALVNNWLIQ | -0.843
15 | HMLVSVSNYLGQNVDTVKSDLEALGLVVKLKEQQTDRESENGAVLEQSIEGGSKVSAGTPITLTYGK | 0.945
16 | HMLWTHIALPVRSLDDTMAFYDKYTTLENIHERQDPETNMRSVWLANPGDKTEQAARFVLVLI | -0.119
17 | HMMTDAEKTFIFFSHLSSVEDHIAYGDKQFYMSLFWQHENKRELSSSQLYHLERLYNKYSMEEIEKKEEFS | -1.35
18 | HMMTDEEFLRIAGYMKQRYGIDLGQKKVIMNGRLENHIKSGGWSSFHAFMNDLEKDSSGKLEKELVNLLTT | -0.239
19 | HMMTLEESYKLLQVSHNASDIEITKAFKKLALLYHPDKNPSNIDWANKAMASINVAYNTIITHRFKEK | -1.38
20 | HMNAAYDEELDFIFSLSEKGKWEEAEAEIGLLLQKHPEDATLQRIGEWVTTQKILLRQQAVEDRIRS | -0.375
21 | HMNAEWMFDARKIPGLVMNYLRRIAVRAIEEKHYSPELVADLFGIDRTSIYDWLRKYRQQGEEALDTRKA | -1.28
22 | HMNAFEIYPNPASNLIRIDAEFTVAKIFSQTGNLIQTSTTKEIDVYNLANGIYFVKLDDSPSMVKFVIN | -0.795
23 | HMNALTEAESKLLERMNKAGIHAEITTKKAAGILQRSENGARTVLNSLVKKGYLTVETNKAPYIYHLH | -0.359
24 | HMNAMFEKVLAAVMGFIGVSAFAKNADGKSEMTSDQEKRLTDKWGSKFVEEFKNDLLEYEKNGNAAEDAV | -0.944
25 | HMNAPKKPLSAYFLFSQEERLKVKAENPDYSITEVAKELGKRWATLNPDIKTVYEQRYQDARRIYETEMNT | -0.372

Row | Sequence | soluble fraction (log2)
26 | HMNAQLTTIPDLDGMNMRAATAMLSSLGLEVKRIGSGTVFAQFPKAGAAMRPGSMVTIRGKAKSL | -0.777
27 | HMNATLSSSYPTSVVTDGEIYKLTFGLNGKYNGQEQITVKPHGDSNIYDSGGLRAYQNTQSNNVVTLN | -0.0686
28 | HMNATQLSNTQKQIRTQLLERLSNNPLTVKQLADRMFVPIDTILKEITALIQEQKIIEDKGGKLQIN | -0.135
29 | HMNAVDLLSPQEQRIFELIGEGMSNRQIADVMYLAEKTVKNYVSNVLMKLGMERRTEAAALAARLDERQK | -0.179
30 | HMNAVITTQKAKQIALAHAGLSEADVNYVKAELENDDGVQVYDIEFYSKNIEYDYDINAVTGEIMSFDHDI | -0.251
31 | HMNAVYPNPFVSEIYIGENNRSVEIYNLNGGLVYGMSQPSSRIDVSGLAAGSYILIKKDSSGHISSHKIMK | -1.63
32 | HMNDAARQTTDILQHVRSSGSISFRDLWRLFMPFMAYRDFDAAVKSLVAAGHIATTENERKELHLIAF | -1.14
33 | HMNDEFYAVVRESYAGYALVKPLDEDVGYDILSVSVKNLKVGDIIRLKVKNIKEIYPPEAEVLEVEVLQ | -0.316
34 | HMNDEQFAIAKNDLLLSLYDGKEVNNSAAEYIIAWESLEKSPSDYISSQLKNTAESIIKISFD | 0.258
35 | HMNDFVTVPDLQGIFYSEAIKKIDKMGLKEGSIQFVNQDKFLPNTVLNQNPKEGTKVSQDSPINLIIS | -0.012
36 | HMNDILETISNQIRDLRVSKKITQQELAERTNLSVPYISQIENGHRNISLETFIKIVDALDIPLSDFFLP | -1.95
37 | HMNDITVNVEDSKLIVTSNNPEKLPLYIMDIQGHILDKSEITAGTYSFPISDRGTYIVRIGENVYKVI | -0.166
38 | HMNDLKVGELAKRGNVTAETVRHYTREGLLSPTRHPDNGYQLFSATDLERLHFIQRARKLGFSVAEIRDIL | -0.915
39 | HMNDLVTWDRYKIELGDTLSEIAQKLVTRVDILKTVNQIQGTRIIAGNSLMVPRTTDTNVLTYL | 0.00348
40 | HMNDPIGDMLTRIRNAQMRGKSTVSTPASKLRAWVLEVLASEGYIRGFERATTDNGQGELVISLD | -0.682
41 | HMNDREAAYEDLPDELVRVGQKVFIKSLETEGVIVQPPNKKGEVRVRSGNISTNVKRSDLGLPIEKP | 0.0745
42 | HMNDRRQDVFELLKSSERPVSAADLAHKFGVTRQVIVADIALLRASDIDIVSTNRGYILKANL | -1.83
43 | HMNDYNLTDREKEVLTFLFQGLEYKEIGMKMSVSPNTIRNHISNIYKKLHVTSKTQAIRVFLNN | -4.09
44 | HMNEAMIMIDLKGKSRDEAVKELDELNLKYRFTGNGIVKDQKPKAGEEINSDTVVEVELSEIK | 0.12
45 | HMNEDYFTIAGYASLRGVNIDTSKANMLGRKATKLSREYGYDIGKVTDTRFGKVNSYHLDILKSIFEF | -0.575
46 | HMNEFSYLSELGSEKGDLIKGLQLVQSREGYVSDDAIRAISKHFSIAEAEVEGVLTFYAQFK | -1.28
47 | HMNEIESFSNTKNPFSLTFKTSKDSSYKVEASSNLKKWTTLSQIKGTGNPITFTESRRILFRKQYYRVTLS | -0.176
48 | HMNEISFYPNPAKESLTVKGLSEITSYSISDINGKLIQYGTTFDRINLEKLTKGFYFLTIGNTISKKLIV | -0.311
49 | HMNEISLKEITIEEDHPWRDKKIKELDLKEHILVAMIRRKDQDIIPNGETKIYKDDILVIYD | 0.00328
50 | HMNEKFNVYPIPVYNNLNITGLSKPVTYLISSIDGKTIKNGVFQESIDVSDLKSGLYFLQVETKDPVKFIK | -0.991
